Source: patent publication US20250381269A1 (FORTVITA BIOLOGICS SINGAPORE PTE, published 2025)

T1: human B7H3 (B73-H52E2, Acro Biosystem) (human, UniProt Q5ZPR3-2 29-245)
T1 construct: also called CD276; antigen B
T1 sequence (looked up): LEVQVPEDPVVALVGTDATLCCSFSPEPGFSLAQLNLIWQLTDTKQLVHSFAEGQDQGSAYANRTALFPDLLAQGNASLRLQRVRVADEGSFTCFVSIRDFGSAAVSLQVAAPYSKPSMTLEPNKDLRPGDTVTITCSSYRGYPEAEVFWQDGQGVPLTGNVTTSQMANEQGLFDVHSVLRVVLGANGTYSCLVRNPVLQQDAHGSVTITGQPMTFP


Assays:
[1] = biological target: T2, human EGFR (EGR-H5222, Acro Biosystem) (human, UniProt P00533 25-645); assay: BLI (Octet Red96e), antibody captured on AHC sensor, human EGFR 100 nM in solution
T2 construct: Bought reagent; also called antigen A

[2] = biological target: T1, human B7H3 (B73-H52E2, Acro Biosystem); assay: BLI (Octet Red96e), antibody captured on AHC sensor, human B7H3 100 nM in solution
[3] = biological target: EGFR R521K on HT-55 and LS180 cells (UniProt P00533 25-1210, limits assumed); assay: cell-based or functional assay
[4] = biological target: EGFR Del19 (amplified) on H1650 cells (UniProt P00533 25-1210); assay: cell-based or functional assay
[5] = biological target: EGFR, wild type, on tumour cells (H508, TE-1, Colo-680N, H292, H322, H358; amplified in SK-MES-1 and H1703) (UniProt P00533 25-1210, limits assumed); assay: cell-based or functional assay
[6] = biological target: EGFR R521K/Y1069C on CCK-81 cells (UniProt P00533 25-1210, limits assumed); assay: cell-based or functional assay
[7] = biological target: EGFR L858R/T790M on H1975 cells (UniProt P00533 25-1210, limits assumed); assay: cell-based or functional assay

| Kd [1] [nM] | koff [1] [s⁻¹] | kon [1] [M⁻¹ s⁻¹] | Kd [2] [nM] | koff [2] [s⁻¹] | kon [2] [M⁻¹ s⁻¹] | IC50(nM), proliferation inhibition, HT-55 cells [3] [nM] | IC50(nM), proliferation inhibition, LS180 cells [3] [nM] | IC50(nM), proliferation inhibition, H1650 cells [4] [nM] | IC50(nM), proliferation inhibition, Colo-680N cells [5] [nM] | IC50(nM), proliferation inhibition, H292 cells [5] [nM] | IC50(nM), proliferation inhibition, H508 cells [5] [nM] | IC50(nM), proliferation inhibition, SK-MES-1 cells (EGFR amplification) [5] [nM] | IC50(nM), proliferation inhibition, TE-1 cells [5] [nM] | IC50(nM), proliferation inhibition, CCK-81 cells [6] [nM] | IC50(nM), proliferation inhibition, H1975 cells [7] [nM] | Binder |
| --- | --- | --- | --- | --- | --- | --- | --- | --- | --- | --- | --- | --- | --- | --- | --- | --- |
| 4.69 | 0.00124 | 264000 | 8.25 | 0.00352 | 427000 |  |  |  |  |  |  |  |  |  |  | Hz5C2.9/Zalu bsAb bispecific antibody molecule (bispecific antibody, human IgG1, kappa, IgG1-like, four polypeptide chains, Innobody heterodimer Fc mutations; low fucose (GlymaxX)) heavy 1: not shown light 1: not shown heavy 2: not shown light 2: EIVLTQSPGTLSLSPGERATLSCRSSQSLVHSQGITYLDWYQQKPGQAPRLLIYKVSNRFSGIPDRFSGSGSGTDFTLTISRLEPEDFAVYYCSQGTHVPPWTFGGGTKVEIKRTVAAPSVFIFPPSDEQLKSGTASVVCLLNNFYPREAKVQWKVDNALQSGNSQESVTEQDSKDSTYSLSSTLTLSKADYEKHKVYACEVTHQGLSSPVTKSFNRGEC |
| 4.19 | 0.00121 | 289000 | 6.73 | 0.00219 | 326000 |  |  |  |  |  |  |  |  |  |  | Hz19A2.25/Zalu bsAb bispecific antibody molecule (bispecific antibody, human IgG1, kappa, IgG1-like, four polypeptide chains, Innobody heterodimer Fc mutations; low fucose (GlymaxX)) heavy 1: not shown light 1: not shown heavy 2: not shown light 2: EIVLTQSPATLSLSPGERATLSCSVSSSVQSNYLYWYQQKPGQAPRLLIYGTSNLASGIPARFSGSGSGTDFTLTISSLEPEDFAVYYCYQWSSYPFTFGQGTKLEIKRTVAAPSVFIFPPSDEQLKSGTASVVCLLNNFYPREAKVQWKVDNALQSGNSQESVTEQDSKDSTYSLSSTLTLSKADYEKHKVYACEVTHQGLSSPVTKSFNRGEC |
| 4.59 |  |  | 2.48 |  |  | 0.14 | 1.33 | 4.86 | 12.3 | 57.8 | 1.08 | 0.4 | 16 | 0.24 | 0.99 | Hz20G5.26/Zalu bsAb bispecific antibody molecule (bispecific antibody, human IgG1, kappa, also called anti-B7-H3/EGFR bispecific antibody) heavy 1: not shown light 1: not shown heavy 2: not shown light 2: DIQLTQSPSFLSASVGDRVTITCSASSSVSYIHWYQQKPGKAPKRWIYDTSRLASGVPSRFSGSGSGTEFTLTISSLQPEDFATYYCQQWSSAPLTFGGGTKVEIKRTVAAPSVFIFPPSDEQLKSGTASVVCLLNNFYPREAKVQWKVDNALQSGNSQESVTEQDSKDSTYSLSSTLTLSKADYEKHKVYACEVTHQGLSSPVTKSFNRGEC |
